Measured values from patent US20130005646A1 (Novo Nordisk, published 2013).
Starred links: 1 amine or outer side, 2 acyl side, 3 side chain; linkers in the order of their positions; H or OH if unused. Positions of bridges follow the written chain, without caps; N, C: chain ends. Non-standard residues stand in square brackets, D forms with d. *: point of attachment. C20 diacid = O=C(O)CCCCCCCCCCCCCCCCCCC(=O)*; 19‑carboxyheptadecanoyl = not defined here; γGlu = O=C(O)[C@H](CCC(=O)[*:2])N[*:1]; AEEA = NCCOCCOCC(=O)O

T1: human amylin 3(a) receptor (human calcitonin receptor + RAMP-3) (human, UniProt P30988 25-474; O60896 24-148)
T1 sequence (looked up) 1: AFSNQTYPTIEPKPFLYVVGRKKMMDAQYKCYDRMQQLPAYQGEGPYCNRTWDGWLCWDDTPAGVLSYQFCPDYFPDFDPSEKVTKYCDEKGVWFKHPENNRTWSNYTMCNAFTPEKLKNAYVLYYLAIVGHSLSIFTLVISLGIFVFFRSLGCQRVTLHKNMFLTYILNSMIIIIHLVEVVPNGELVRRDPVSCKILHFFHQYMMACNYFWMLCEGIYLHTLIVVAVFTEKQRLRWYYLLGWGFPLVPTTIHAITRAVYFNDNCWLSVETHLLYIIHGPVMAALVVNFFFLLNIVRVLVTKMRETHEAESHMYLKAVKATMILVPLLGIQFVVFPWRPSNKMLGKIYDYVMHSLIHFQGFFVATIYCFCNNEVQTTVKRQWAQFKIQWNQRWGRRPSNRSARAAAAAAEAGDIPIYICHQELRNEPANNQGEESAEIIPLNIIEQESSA
T1 sequence (looked up) 2: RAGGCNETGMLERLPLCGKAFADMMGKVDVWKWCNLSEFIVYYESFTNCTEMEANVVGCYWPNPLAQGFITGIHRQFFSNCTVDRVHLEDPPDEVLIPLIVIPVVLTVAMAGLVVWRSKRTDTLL

T2: rat calcitonin (a) receptor (rat, UniProt P32214 25-516)
T2 sequence (looked up): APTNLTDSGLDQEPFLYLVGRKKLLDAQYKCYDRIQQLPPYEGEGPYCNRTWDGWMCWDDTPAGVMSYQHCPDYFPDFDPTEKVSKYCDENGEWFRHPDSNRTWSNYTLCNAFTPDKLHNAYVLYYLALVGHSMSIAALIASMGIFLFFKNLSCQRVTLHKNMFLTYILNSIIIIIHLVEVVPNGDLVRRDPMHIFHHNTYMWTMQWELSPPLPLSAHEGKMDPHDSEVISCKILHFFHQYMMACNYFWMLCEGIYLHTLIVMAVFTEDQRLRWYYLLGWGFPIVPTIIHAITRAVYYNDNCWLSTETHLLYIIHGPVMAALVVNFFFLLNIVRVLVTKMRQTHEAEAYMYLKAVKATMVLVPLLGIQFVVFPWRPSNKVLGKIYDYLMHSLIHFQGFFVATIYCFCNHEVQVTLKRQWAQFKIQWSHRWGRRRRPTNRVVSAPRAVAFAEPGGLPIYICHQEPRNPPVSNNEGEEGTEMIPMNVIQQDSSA

T3: rat amylin 3(a) receptor (rat calcitonin(a) receptor + rat RAMP3) (rat, UniProt P32214 25-516; Q9JJ73 23-147)
T3 sequence (looked up) 1: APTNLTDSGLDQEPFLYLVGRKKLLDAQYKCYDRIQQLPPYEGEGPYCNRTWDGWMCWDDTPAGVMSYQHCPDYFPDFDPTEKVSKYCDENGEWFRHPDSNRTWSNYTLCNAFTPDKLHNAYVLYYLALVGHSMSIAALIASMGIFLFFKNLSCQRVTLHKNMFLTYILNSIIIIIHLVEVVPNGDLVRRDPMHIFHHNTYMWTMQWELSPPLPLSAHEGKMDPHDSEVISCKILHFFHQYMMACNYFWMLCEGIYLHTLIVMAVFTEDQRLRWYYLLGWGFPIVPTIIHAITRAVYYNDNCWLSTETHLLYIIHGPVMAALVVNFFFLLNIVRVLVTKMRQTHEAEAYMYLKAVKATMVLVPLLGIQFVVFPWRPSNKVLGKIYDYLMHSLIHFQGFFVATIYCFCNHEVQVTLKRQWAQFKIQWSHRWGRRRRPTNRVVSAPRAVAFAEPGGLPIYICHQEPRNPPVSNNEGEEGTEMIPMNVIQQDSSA
T3 sequence (looked up) 2: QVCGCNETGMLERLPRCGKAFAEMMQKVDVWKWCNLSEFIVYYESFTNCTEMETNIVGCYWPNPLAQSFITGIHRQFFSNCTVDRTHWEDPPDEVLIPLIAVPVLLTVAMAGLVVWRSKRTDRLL

T4: human calcitonin (a) receptor (human, UniProt P30988 25-474)
T4 sequence (looked up): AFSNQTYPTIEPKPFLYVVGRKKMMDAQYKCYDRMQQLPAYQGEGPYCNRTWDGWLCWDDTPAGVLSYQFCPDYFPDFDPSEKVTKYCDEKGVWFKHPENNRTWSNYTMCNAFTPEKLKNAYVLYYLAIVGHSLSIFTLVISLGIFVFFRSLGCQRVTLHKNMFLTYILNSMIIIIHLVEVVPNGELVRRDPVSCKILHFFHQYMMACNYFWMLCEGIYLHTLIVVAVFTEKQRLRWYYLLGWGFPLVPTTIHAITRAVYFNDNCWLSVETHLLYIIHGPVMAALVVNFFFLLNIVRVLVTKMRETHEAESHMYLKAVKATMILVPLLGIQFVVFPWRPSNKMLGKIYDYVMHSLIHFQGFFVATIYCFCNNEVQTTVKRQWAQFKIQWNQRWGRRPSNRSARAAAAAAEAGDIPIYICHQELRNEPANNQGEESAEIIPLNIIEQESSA


How the values were obtained:
Test in all cases: cell-based or functional assay
[1] = biological target: T1, human amylin 3(a) receptor (human …)
[2] = biological target: T2, rat calcitonin (a) receptor
[3] = biological target: T3, rat amylin 3(a) receptor (rat …)
[4] = biological target: T4, human calcitonin (a) receptor

Row | Amylin receptor human EC50 [1] [nM] | CTa receptor rat EC50 [2] [nM] | Amylin receptor rat EC50 [3] [nM] | CTa receptor human EC50 [4] [nM] | Binder
1 | 0.121 | 0.539 | 0.188 | 0.107 | {C20 diacid-γGlu}-KCNTATCATQRLAEFLHHSSNNFGPILPPTNVGSNTY-NH2 (disulfide 2-7; SMILES CC[C@H](C)[C@H](NC(=O)[C@@H]1CCCN1C(=O)CNC(=O)[C@H](Cc1ccccc1)NC(=O)[C@H](CC(N)=O)NC(=O)[C@H](CC(N)=O)NC(=O)[C@H](CO)NC(=O)[C@H](CO)NC(=O)[C@H](Cc1c[nH]cn1)NC(=O)[C@H](Cc1c[nH]cn1)NC(=O)[C@H](CC(C)C)NC(=O)[C@H](Cc1ccccc1)NC(=O)[C@H](CCC(=O)O)NC(=O)[C@H](C)NC(=O)[C@H](CC(C)C)NC(=O)[C@H](CCCNC(=N)N)NC(=O)[C@H](CCC(N)=O)NC(=O)[C@@H](NC(=O)[C@H](C)NC(=O)[C@@H]1CSSC[C@H](NC(=O)[C@H](CCCCN)NC(=O)CC[C@H](NC(=O)CCCCCCCCCCCCCCCCCCC(=O)O)C(=O)O)C(=O)N[C@@H](CC(N)=O)C(=O)N[C@@H]([C@@H](C)O)C(=O)N[C@@H](C)C(=O)N[C@@H]([C@@H](C)O)C(=O)N1)[C@@H](C)O)C(=O)N[C@@H](CC(C)C)C(=O)N1CCC[C@H]1C(=O)N1CCC[C@H]1C(=O)N[C@H](C(=O)N[C@@H](CC(N)=O)C(=O)N[C@H](C(=O)NCC(=O)N[C@@H](CO)C(=O)N[C@@H](CC(N)=O)C(=O)N[C@H](C(=O)N[C@@H](Cc1ccc(O)cc1)C(N)=O)[C@@H](C)O)C(C)C)[C@@H](C)O) [N-alpha-[(S)-4-Carboxy-4-(19-carboxynonadecanoylamino)butyryl]-[Glu14,His17]-pramlintide]
2 | 0.0832 | 1.89 | 0.132 | 0.642 | {19‑carboxyheptadecanoyl-γGlu-AEEA-AEEA}-[dR][dR]KCNTATCATQRLAEFLHRSSNNFGPILPPTNVGSNTY-NH2 (disulfide 4-9; reading uncertain; also: printed as N-alpha-[2-(2-{2-[2-(2-{2-[(S)-4-Carboxy-4-(19-carboxyheptadecanoylamino)butyrylamino]ethoxy}ethoxy)acetylamino]ethoxy}ethoxy)acetyl]-D-Arg-D-Arg-[Glu14,His17,Arg18]-pramlintide)
3 | 0.164 | 1.31 | 0.2 | 0.155 | {C20 diacid-γGlu}-HHHCNTATCATQRLAEFLHHSSNNFGPILPPTNVGSHTY-NH2 (disulfide 4-9; SMILES CC[C@H](C)[C@H](NC(=O)[C@@H]1CCCN1C(=O)CNC(=O)[C@H](Cc1ccccc1)NC(=O)[C@H](CC(N)=O)NC(=O)[C@H](CC(N)=O)NC(=O)[C@H](CO)NC(=O)[C@H](CO)NC(=O)[C@H](Cc1c[nH]cn1)NC(=O)[C@H](Cc1c[nH]cn1)NC(=O)[C@H](CC(C)C)NC(=O)[C@H](Cc1ccccc1)NC(=O)[C@H](CCC(=O)O)NC(=O)[C@H](C)NC(=O)[C@H](CC(C)C)NC(=O)[C@H](CCCNC(=N)N)NC(=O)[C@H](CCC(N)=O)NC(=O)[C@@H](NC(=O)[C@H](C)NC(=O)[C@@H]1CSSC[C@H](NC(=O)[C@H](Cc2c[nH]cn2)NC(=O)[C@H](Cc2c[nH]cn2)NC(=O)[C@H](Cc2c[nH]cn2)NC(=O)CC[C@H](NC(=O)CCCCCCCCCCCCCCCCCCC(=O)O)C(=O)O)C(=O)N[C@@H](CC(N)=O)C(=O)N[C@@H]([C@@H](C)O)C(=O)N[C@@H](C)C(=O)N[C@@H]([C@@H](C)O)C(=O)N1)[C@@H](C)O)C(=O)N[C@@H](CC(C)C)C(=O)N1CCC[C@H]1C(=O)N1CCC[C@H]1C(=O)N[C@H](C(=O)N[C@@H](CC(N)=O)C(=O)N[C@H](C(=O)NCC(=O)N[C@@H](CO)C(=O)N[C@@H](Cc1c[nH]cn1)C(=O)N[C@H](C(=O)N[C@@H](Cc1ccc(O)cc1)C(N)=O)[C@@H](C)O)C(C)C)[C@@H](C)O)
4 | 0.149 | 4.48 | 0.233 | 1.11 | {19‑carboxyheptadecanoyl-γGlu-AEEA-AEEA}-[dR][dR]KCNTATCATQRLAEFLHRSSANFGPILPPTNVGSSTY-NH2 (disulfide 4-9; reading uncertain; also: printed as N-alpha-[2-(2-{2-[2-(2-{2-[(S)-4-Carboxy-4-(19-carboxyheptadecanoylamino)butyrylamino]ethoxy}ethoxy)acetylamino]ethoxy}ethoxy)acetyl]-D-Arg-D-Arg-[Glu14,His17,Arg18,Ala21,Ser35]-pramlintide)
5 | 0.603 | 4.87 | 0.401 | 0.543 | {C20 diacid-γGlu}-HHHCHTATCATQRLAEFLHHSSNNFGPILPPTNVGSHTY-NH2 (disulfide 4-9; SMILES CC[C@H](C)[C@H](NC(=O)[C@@H]1CCCN1C(=O)CNC(=O)[C@H](Cc1ccccc1)NC(=O)[C@H](CC(N)=O)NC(=O)[C@H](CC(N)=O)NC(=O)[C@H](CO)NC(=O)[C@H](CO)NC(=O)[C@H](Cc1c[nH]cn1)NC(=O)[C@H](Cc1c[nH]cn1)NC(=O)[C@H](CC(C)C)NC(=O)[C@H](Cc1ccccc1)NC(=O)[C@H](CCC(=O)O)NC(=O)[C@H](C)NC(=O)[C@H](CC(C)C)NC(=O)[C@H](CCCNC(=N)N)NC(=O)[C@H](CCC(N)=O)NC(=O)[C@@H](NC(=O)[C@H](C)NC(=O)[C@@H]1CSSC[C@H](NC(=O)[C@H](Cc2c[nH]cn2)NC(=O)[C@H](Cc2c[nH]cn2)NC(=O)[C@H](Cc2c[nH]cn2)NC(=O)CC[C@H](NC(=O)CCCCCCCCCCCCCCCCCCC(=O)O)C(=O)O)C(=O)N[C@@H](Cc2c[nH]cn2)C(=O)N[C@@H]([C@@H](C)O)C(=O)N[C@@H](C)C(=O)N[C@@H]([C@@H](C)O)C(=O)N1)[C@@H](C)O)C(=O)N[C@@H](CC(C)C)C(=O)N1CCC[C@H]1C(=O)N1CCC[C@H]1C(=O)N[C@H](C(=O)N[C@@H](CC(N)=O)C(=O)N[C@H](C(=O)NCC(=O)N[C@@H](CO)C(=O)N[C@@H](Cc1c[nH]cn1)C(=O)N[C@H](C(=O)N[C@@H](Cc1ccc(O)cc1)C(N)=O)[C@@H](C)O)C(C)C)[C@@H](C)O)
